Assay results published in doi:10.1101/2024.07.09.602679 (bioRxiv, 2024).

T1: Brr1Δ(122-197) with N-terminal His6-TEV tag (S. cerevisiae, UniProt Q99177 1-341, Δ(122-197))
T1 sequence (looked up): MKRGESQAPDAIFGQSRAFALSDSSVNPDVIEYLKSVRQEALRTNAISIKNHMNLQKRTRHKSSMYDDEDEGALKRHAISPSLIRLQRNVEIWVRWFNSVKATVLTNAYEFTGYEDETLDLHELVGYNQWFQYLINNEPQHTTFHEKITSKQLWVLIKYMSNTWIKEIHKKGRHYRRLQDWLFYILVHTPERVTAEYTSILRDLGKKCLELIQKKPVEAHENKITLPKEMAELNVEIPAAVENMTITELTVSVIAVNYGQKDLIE

T2: D1/D2/F/E/G pentamer (5Sm) (S. cerevisiae, UniProt Q02260 1-109; Q06217 1-110; P54999 1-86; Q12330 1-94; P40204 1-77)
T2 sequence (looked up) 1: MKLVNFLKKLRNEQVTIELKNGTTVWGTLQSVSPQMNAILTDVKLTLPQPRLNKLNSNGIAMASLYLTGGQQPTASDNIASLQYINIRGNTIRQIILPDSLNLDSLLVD
T2 sequence (looked up) 2: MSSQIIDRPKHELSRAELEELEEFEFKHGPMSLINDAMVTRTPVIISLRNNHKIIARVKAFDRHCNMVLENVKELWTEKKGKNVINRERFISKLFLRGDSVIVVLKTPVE
T2 sequence (looked up) 3: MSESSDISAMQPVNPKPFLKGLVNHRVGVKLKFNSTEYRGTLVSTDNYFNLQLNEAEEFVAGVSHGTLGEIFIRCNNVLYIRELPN
T2 sequence (looked up) 4: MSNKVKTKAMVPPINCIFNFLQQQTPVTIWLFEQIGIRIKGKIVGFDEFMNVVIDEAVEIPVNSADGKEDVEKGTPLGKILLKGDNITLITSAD
T2 sequence (looked up) 5: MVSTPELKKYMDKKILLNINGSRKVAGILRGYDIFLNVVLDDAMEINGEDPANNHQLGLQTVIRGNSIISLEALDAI

T3: full-length Lot5 with N-terminal His6-TEV tag (S. cerevisiae, UniProt P34234 1-306)
T3 sequence (looked up): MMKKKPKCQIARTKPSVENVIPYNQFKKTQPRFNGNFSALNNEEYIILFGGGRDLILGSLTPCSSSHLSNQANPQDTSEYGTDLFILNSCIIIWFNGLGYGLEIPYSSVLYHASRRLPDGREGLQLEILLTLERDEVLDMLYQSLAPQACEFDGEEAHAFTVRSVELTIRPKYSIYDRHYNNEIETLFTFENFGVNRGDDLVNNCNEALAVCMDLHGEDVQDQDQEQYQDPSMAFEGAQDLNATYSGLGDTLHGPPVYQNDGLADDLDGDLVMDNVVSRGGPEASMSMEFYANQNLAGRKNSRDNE

T4: Brr1/5Sm heterohexamer (S. cerevisiae, UniProt Q99177 1-341; Q02260 1-109; Q06217 1-110; P54999 1-86; Q12330 1-94; P40204 1-77)
T4 sequence (looked up) 1: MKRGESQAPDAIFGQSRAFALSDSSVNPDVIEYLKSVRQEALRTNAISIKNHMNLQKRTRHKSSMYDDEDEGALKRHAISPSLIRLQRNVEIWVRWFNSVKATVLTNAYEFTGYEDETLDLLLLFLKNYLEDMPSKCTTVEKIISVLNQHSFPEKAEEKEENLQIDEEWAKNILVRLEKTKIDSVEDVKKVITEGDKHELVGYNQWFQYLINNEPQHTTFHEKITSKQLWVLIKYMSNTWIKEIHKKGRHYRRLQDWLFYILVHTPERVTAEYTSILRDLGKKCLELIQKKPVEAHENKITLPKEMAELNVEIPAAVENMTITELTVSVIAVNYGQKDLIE
T4 sequence (looked up) 2: T2 sequence (looked up) 1
T4 sequence (looked up) 3: T2 sequence (looked up) 2
T4 sequence (looked up) 4: T2 sequence (looked up) 3
T4 sequence (looked up) 5: T2 sequence (looked up) 4
T4 sequence (looked up) 6: T2 sequence (looked up) 5

B1: SmF/E/G subcomplex, HT-tag removed (complex, S. cerevisiae)
chain 1: T2 sequence (looked up) 3
chain 2: T2 sequence (looked up) 4
chain 3: T2 sequence (looked up) 5
B2: full-length Brr1, HT-tag removed (natural protein, S. cerevisiae, UniProt Q99177 1-341, looked up)
chain: T4 sequence (looked up) 1
B3: full-length Brr1 with N-terminal His6-TEV tag (natural protein, S. cerevisiae, UniProt Q99177 1-341, looked up)
chain: T4 sequence (looked up) 1
B4: SmD1/D2 subcomplex, HT-tag removed (complex, S. cerevisiae)
chain 1: T2 sequence (looked up) 1
chain 2: T2 sequence (looked up) 2
B5: Lot5 (residues 1-227) with N-terminal His6-TEV tag (domain or fragment, S. cerevisiae, UniProt P34234 1-227, looked up)
chain: MMKKKPKCQIARTKPSVENVIPYNQFKKTQPRFNGNFSALNNEEYIILFGGGRDLILGSLTPCSSSHLSNQANPQDTSEYGTDLFILNSCIIIWFNGLGYGLEIPYSSVLYHASRRLPDGREGLQLEILLTLERDEVLDMLYQSLAPQACEFDGEEAHAFTVRSVELTIRPKYSIYDRHYNNEIETLFTFENFGVNRGDDLVNNCNEALAVCMDLHGEDVQDQDQEQ
B6: SmD3/B subcomplex, HT-tag removed (complex, S. cerevisiae)
chain 1: MSKIQVAHSSRLANLIDYKLRVLTQDGRVYIGQLMAFDKHMNLVLNECIEERVPKTQLDKLRPRKDSKDGTTLNIKVEKRVLGLTILRGEQILSTVVEDKPLLSK
chain 2: MTMNGIPVKLLNEAQGHIVSLELTTGATYRGKLVESEDSMNVQLRDVIATEPQGAVTHMDQIFVRGSQIKFIVVPDLLKNAPLFKKNS

Key:
[1] = molecular target: T1, Brr1Δ(122-197) with N-terminal His6-TEV …; experiment: pull-down
[2] = molecular target: B3; experiment: pull-down
[3] = molecular target: B2; experiment: SEC
[4] = molecular target: T2, D1/D2/F/E/G pentamer (5Sm); experiment: SEC
[5] = molecular target: T2, D1/D2/F/E/G pentamer (5Sm); experiment: pull-down
[6] = molecular target: B5; experiment: pull-down
[7] = molecular target: T3, full-length Lot5 with N-terminal …; experiment: pull-down
[8] = molecular target: T4, Brr1/5Sm heterohexamer; experiment: SEC

Binder	binding result [4]	binding result [6]	binding result [7]	other results
B1	–	–	–	binding result [1]: binds; binding result [2]: binds; binding result [3]: binds
B2	binds	–	–	–
B3	–	–	–	binding result [5]: binds
B4	–	binds	binds	–
B5	binds	–	–	binding result [8]: binds
B6	–	binds	binds	–
